Article PMC10397247

Columns and labels:
[1] = biological target: T1, Core_NNIN-es_KEEK; assay: two-hybrid library CCmax; conditions: mean of both orientations;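 note: natural log of median RNA to DNA barcode read ratio; higher means stronger binding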
T1 chain: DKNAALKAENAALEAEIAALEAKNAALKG

[2] = biological target: T2, Core_NNNN-es_KKEK; assay: two-hybrid library CCmax; conditions: mean of both orientations;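 note: natural log of median RNA to DNA barcode read ratio; higher means stronger binding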
T2 chain: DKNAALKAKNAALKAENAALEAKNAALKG

[3] = biological target: T3, Core_NIIN-es_KEEK; assay: two-hybrid library CCmax; conditions: mean of both orientations;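 note: natural log of median RNA to DNA barcode read ratio; higher means stronger binding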
T3 chain: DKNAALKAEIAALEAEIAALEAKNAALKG

[4] = biological target: T4, Core_NNNI-es_KEKK; assay: two-hybrid library CCmax; conditions: mean of both orientations;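 note: natural log of median RNA to DNA barcode read ratio; higher means stronger binding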
T4 chain: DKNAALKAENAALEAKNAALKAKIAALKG

[5] = biological target: T5, Core_NNNI-es_KEEE; assay: two-hybrid library CCmax; conditions: mean of both orientations;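 note: natural log of median RNA to DNA barcode read ratio; higher means stronger binding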
T5 chain: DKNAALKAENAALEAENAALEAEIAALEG

[6] = biological target: T6, 4H4033-AA; assay: two-hybrid library CCmax; conditions: mean of both orientations;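 note: natural log of median RNA to DNA barcode read ratio; higher means stronger binding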
T6 chain: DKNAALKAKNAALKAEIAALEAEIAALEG

[7] = biological target: T7, 4H2608-AA; assay: two-hybrid library CCmax
T7 chain: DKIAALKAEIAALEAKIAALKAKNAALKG

[8] = biological target: T8, 4H2726-AA; assay: two-hybrid library CCmax; conditions: mean of both orientations
T8 chain: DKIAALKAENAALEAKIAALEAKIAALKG

[9] = biological target: T9, 4H2614-AA; assay: two-hybrid library CCmax; conditions: mean of both orientations
T9 chain: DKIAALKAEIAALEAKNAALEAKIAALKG

[10] = biological target: T10, 4H481-AA; assay: two-hybrid library CCmax; conditions: mean of both orientations
T10 chain: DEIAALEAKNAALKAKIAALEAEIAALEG

[11] = biological target: T11, 4H3664-AA; assay: two-hybrid library CCmax; conditions: mean of both orientations
T11 chain: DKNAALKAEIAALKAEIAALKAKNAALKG

[12] = biological target: T12, 4H55-AA; assay: two-hybrid library CCmax; conditions: mean of both orientations
T12 chain: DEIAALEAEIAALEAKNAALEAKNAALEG

[13] = biological target: T13, Core_IIIN-es_EKEE; assay: two-hybrid library CCmax; conditions: mean of both orientations
T13 chain: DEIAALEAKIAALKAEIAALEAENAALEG

[14] = biological target: T14, 4H369-AA; assay: two-hybrid library CCmax
T14 chain: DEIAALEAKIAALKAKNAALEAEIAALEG

[15] = biological target: T15, 4H3625-AA; assay: two-hybrid library CCmax; conditions: mean of both orientations
T15 chain: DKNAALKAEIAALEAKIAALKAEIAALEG

[16] = biological target: T16, 4H3922-AA; assay: two-hybrid library CCmax; conditions: mean of both orientations
T16 chain: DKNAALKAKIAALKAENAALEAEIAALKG

[17] = biological target: T17, 4H662-AA; assay: two-hybrid library CCmax; conditions: mean of both orientations
T17 chain: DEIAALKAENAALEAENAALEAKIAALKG

[18] = biological target: T18, 4H3605-AA; assay: two-hybrid library CCmax; conditions: mean of both orientations
T18 chain: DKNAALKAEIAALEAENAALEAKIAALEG

[19] = biological target: T19, 4H2935-AA; assay: two-hybrid library CCmax; conditions: mean of both orientations
T19 chain: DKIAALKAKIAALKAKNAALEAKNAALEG

[20] = biological target: T20, 4H327-AA; assay: two-hybrid library CCmax; conditions: mean of both orientations
T20 chain: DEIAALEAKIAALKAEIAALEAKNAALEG

[21] = biological target: T21, P2-AA-1HGe-Q; assay: two-hybrid library CCmax; conditions: mean of both orientations
T21 chain: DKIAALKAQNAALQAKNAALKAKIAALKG

[22] = biological target: T22, P2-AA-1HGe-A; assay: two-hybrid library CCmax; conditions: mean of both orientations
T22 chain: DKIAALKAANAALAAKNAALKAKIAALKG

[23] = biological target: T23, P2-AA-1HGe-S; assay: two-hybrid library CCmax; conditions: mean of both orientations
T23 chain: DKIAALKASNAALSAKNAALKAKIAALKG

[24] = biological target: T24, P2-AA-1HGe-T; assay: two-hybrid library CCmax; conditions: mean of both orientations
T24 chain: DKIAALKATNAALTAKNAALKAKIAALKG

[25] = biological target: T25, P2-AA-1HGe-D; assay: two-hybrid library CCmax; conditions: mean of both orientations
T25 chain: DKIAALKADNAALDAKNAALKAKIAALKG

[26] = biological target: T26, P2-AA-1HGe-M; assay: two-hybrid library CCmax; conditions: mean of both orientations
T26 chain: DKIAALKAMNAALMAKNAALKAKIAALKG

[27] = biological target: T27, P2-AA; assay: two-hybrid library CCmax; conditions: mean of both orientations
T27 chain: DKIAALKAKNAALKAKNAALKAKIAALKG

[28] = biological target: T28, P6SC2R; assay: two-hybrid library CCmax
T28 chain: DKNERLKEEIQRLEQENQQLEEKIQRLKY

[29] = biological target: T28, P6SC2R; assay: two-hybrid library CCNG1
[30] = biological target: T29, Core_NINN-es_KEEK; assay: two-hybrid library CCmax; conditions: mean of both orientations
T29 chain: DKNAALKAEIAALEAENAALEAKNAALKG

[31] = biological target: T30, 4H491-bA; assay: two-hybrid library CCNG1
T30 chain: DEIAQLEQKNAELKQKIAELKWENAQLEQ

[32] = biological target: T31, 4H2937-bA; assay: two-hybrid library CCNG1
T31 chain: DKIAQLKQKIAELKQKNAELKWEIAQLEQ

[33] = biological target: T32, 4H2696-bA; assay: two-hybrid library CCNG1
T32 chain: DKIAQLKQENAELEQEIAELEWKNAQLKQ

[34] = biological target: T33, 4H2883-bA; assay: two-hybrid library CCNG1
T33 chain: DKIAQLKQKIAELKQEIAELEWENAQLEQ

[35] = biological target: T34, 4H19-bA; assay: two-hybrid library CCNG1
T34 chain: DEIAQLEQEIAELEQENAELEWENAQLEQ

[36] = biological target: T35, 4H2944-bA; assay: two-hybrid library CCNG1
T35 chain: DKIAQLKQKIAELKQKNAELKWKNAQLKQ

[37] = biological target: T36, 4H48-bA; assay: two-hybrid library CCNG1
T36 chain: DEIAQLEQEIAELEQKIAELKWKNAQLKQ

[38] = biological target: T37, 4H342-bA; assay: two-hybrid library CCNG1
T37 chain: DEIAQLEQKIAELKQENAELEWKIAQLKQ

[39] = biological target: T38, Core_NNNN-es_KEKK; assay: two-hybrid library CCmax; conditions: mean of both orientations
T38 chain: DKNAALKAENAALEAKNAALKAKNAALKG

[40] = biological target: T39, Core_NINN-es_KKEE; assay: two-hybrid library CCmax; conditions: mean of both orientations
T39 chain: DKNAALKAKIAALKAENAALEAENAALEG

[41] = biological target: T40, Core_IINN-es_KKEK; assay: two-hybrid library CCmax; conditions: mean of both orientations
T40 chain: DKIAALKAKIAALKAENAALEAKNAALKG

[42] = biological target: T41, O7; assay: two-hybrid library CC0; conditions: mean of both orientations
T41 chain: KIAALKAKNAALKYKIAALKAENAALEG

[43] = biological target: T42, O5; assay: two-hybrid library CC0; conditions: mean of both orientations
T42 chain: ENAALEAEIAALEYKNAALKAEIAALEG

[44] = biological target: T43, O11; assay: two-hybrid library CC0; conditions: mean of both orientations
T43 chain: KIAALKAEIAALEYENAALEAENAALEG

[45] = biological target: T44, O8; assay: two-hybrid library CC0; conditions: mean of both orientations
T44 chain: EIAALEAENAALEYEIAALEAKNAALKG

[46] = biological target: T45, O14; assay: two-hybrid library CC0; conditions: mean of both orientations
T45 chain: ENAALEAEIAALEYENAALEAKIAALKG

[47] = biological target: T46, O15; assay: two-hybrid library CC0; conditions: mean of both orientations
T46 chain: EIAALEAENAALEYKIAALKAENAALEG

[48] = biological target: T47, O1; assay: two-hybrid library CC0; conditions: mean of both orientations
T47 chain: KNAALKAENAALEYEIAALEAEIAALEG

[49] = biological target: T48, O12; assay: two-hybrid library CC0; conditions: mean of both orientations
T48 chain: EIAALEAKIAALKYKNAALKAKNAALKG

[50] = biological target: T49, O2; assay: two-hybrid library CC0; conditions: mean of both orientations
T49 chain: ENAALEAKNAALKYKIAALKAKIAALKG

[51] = biological target: T50, O4; assay: two-hybrid library CC0; conditions: mean of both orientations
T50 chain: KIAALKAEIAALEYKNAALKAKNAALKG

[52] = biological target: T51, O9; assay: two-hybrid library CC0; conditions: mean of both orientations
T51 chain: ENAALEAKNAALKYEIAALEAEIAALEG

[53] = biological target: T52, O13; assay: two-hybrid library CC0; conditions: mean of both orientations
T52 chain: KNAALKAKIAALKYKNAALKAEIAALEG

[54] = biological target: T53, O6; assay: two-hybrid library CC0; conditions: mean of both orientations
T53 chain: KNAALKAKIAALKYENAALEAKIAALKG

[55] = biological target: T54, O3; assay: two-hybrid library CC0; conditions: mean of both orientations
T54 chain: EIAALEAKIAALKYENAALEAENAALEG

[56] = biological target: T55, O10; assay: two-hybrid library CC0; conditions: mean of both orientations
T55 chain: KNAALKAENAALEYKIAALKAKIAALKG

[57] = biological target: T56, O16; assay: two-hybrid library CC0; conditions: mean of both orientations
T56 chain: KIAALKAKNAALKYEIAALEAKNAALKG

DENAALEAKNAALKAKIAALKAENAALEG [Core_NNIN-es_EKKE] was tested, and the interaction score [1] was 1.39.

DENAALEAENAALEAKNAALKAENAALEG [Core_NNNN-es_EEKE] showed an interaction score [2] of 0.00657.

Binder DENAALEAKIAALKAKIAALKAENAALEG [Core_NIIN-es_EKKE] has an interaction score [3] of 2.22.

DENAALEAKNAALKAENAALEAEIAALEG [Core_NNNI-es_EKEE] gave an interaction score [4] of 2.11.

DENAALEAKNAALKAKNAALKAKIAALKG [Core_NNNI-es_EKKK] was tested, and the interaction score [5] was 1.91.

DKIAALKAEIAALEAKIAALKAKNAALKG [4H2608-AA] gave an interaction score [6] of -0.845, an interaction score [7] of -0.193 and an interaction score [8] of -0.998. For the same binder, the interaction score [9] was -0.644, the interaction score [10] was 1.33 and the interaction score [11] was -0.787. For the same binder, the interaction score [12] was -0.255, the interaction score [13] was 1.53 and the interaction score [14] was 0.124. For the same binder, the interaction score [15] was 1.92, the interaction score [16] was -1.39 and the interaction score [17] was -1.55. For the same binder, the interaction score [18] was -0.648, the interaction score [19] was -0.712 and the interaction score [20] was 1.83.

DEIAALEAANAALAAENAALEAEIAALEG [P1-AA-1HGe-A] was tested, and the interaction score [21] was 1.88, the interaction score [22] was 1.85 and the interaction score [23] was 2.24. It also gave an interaction score [24] of 1.54, an interaction score [25] of 1.82 and an interaction score [26] of 2.12. It also gave an interaction score [27] of 1.57.

DENSQLEEKISQLKQKNSRLKEEIQRLEY [P5SC1Q] was tested, and the interaction score [28] was 1.06 and the interaction score [29] was 1.2.

DENAALEAKIAALKAKNAALKAENAALEG [Core_NINN-es_EKKE] gave an interaction score [30] of 1.86.

Binder DEIAQLEQEIAELEQENAELEWENAQLEQ [4H19-bA] has an interaction score [31] of -1.22, an interaction score [32] of 1.86 and an interaction score [33] of -1.13. For the same binder, the interaction score [34] was -0.0858, the interaction score [35] was -0.446 and the interaction score [36] was 2.54. The interaction score [37] was -0.828 and the interaction score [38] was -0.577.

For DENAALEAKNAALKAENAALEAENAALEG [Core_NNNN-es_EKEE], the interaction score [39] was 0.346.

In the case of DENAALEAEIAALEAKNAALKAKNAALKG [Core_NINN-es_EEKK], the interaction score [40] is reported as 1.6.

Binder DEIAALEAEIAALEAKNAALKAENAALEG [Core_IINN-es_EEKE] has an interaction score [41] of 2.21.

Work on KNAALKAENAALEYEIAALEAEIAALEG [O1] yielded an interaction score [42] of -2.69, an interaction score [43] of -2.77 and an interaction score [44] of -2.7. The interaction score [45] was -2.67, the interaction score [46] was -2.71 and the interaction score [47] was -2.7. It also gave an interaction score [48] of -2.74, an interaction score [49] of -2.64 and an interaction score [50] of 1.37. The interaction score [51] was -2.68, the interaction score [52] was -2.49 and the interaction score [53] was -2.57. For the same binder, the interaction score [54] was -2.76, the interaction score [55] was -2.76 and the interaction score [56] was -0.97. For the same binder, the interaction score [57] was -2.65.
